In PMC7255509, “Crystal structure of the catalytic C‐lobe of the HECT‐type ubiquitin ligase E6AP” (Protein Science : A Publication of the Protein Society, 2020):

Target: the molecule itself
Assay: crystal structure; crystallised at >=30 mg/ml (crystal used: 60 mg/ml), 20°C, sitting drops, 0.1 M calcium chloride, 0.1 M sodium acetate pH 4.6, 30% PEG400; 1.3 Å; dimer of two symmetry-related molecules

B1: C-lobe of the catalytic (HECT) domain of E6AP (domain or fragment, UniProt Q05086-2 741-852, looked up)
chain: NLDFQALEETTEYDGGYTRDSVLIREFWEIVHSFTDEQKRLFLQFTTGTDRAPVGGLGKLKMIIAKNGPDTERLPTSHTCFNVLLLPEYSSKEKLKERLLKAITYAKGFGML
notes: E6AP (UBE3A), HECT-type ubiquitin ligase, C-lobe of the catalytic domain, residues 741-852; catalytic Cys820; numbers count on: isoform 1 (ends at residue 852); Cleavage by 3C protease may leave a few residues of the vector at the N-terminus; In the crystal the two Cys820 are read as partly joined by an intermolecular disulfide; also called E6AP C-lobe; C-terminal lobe of E6AP; source: E. coli …
stoichiometry N: 2
